The source of these data is PMC8913300, “Two distinct classes of cochaperones compete for the EEVD motif in heat shock protein 70 to tune its chaperone activities” (The Journal of Biological Chemistry, 2022).

To fix the notation:
B1: Hsp72 C-terminal 10-mer peptide, unlabeled, N-acetylated (peptide)
peptide: Ac-GSGPTIEEVD-OH
notes: last 10 residues of Hsp72/HSPA1A; also called WT Hsp72 peptide; source: synthetic peptide, bought: GenScript
B2: Hsp72 10-mer peptide with P5 Ile replaced by Met (peptide, UniProt P0DMV8 632-641, looked up)
peptide: Ac-GSGPTMEEVD-OH
notes: also called P5 Met mutant; source: synthetic peptide, bought: GenScript
B3: Hsp72 C-terminal peptide truncated of P10 to P8 (7-mer PTIEEVD) (peptide)
peptide: Ac-PTIEEVD-OH
notes: last seven amino acids of Hsp72/HSPA1A; source: synthetic peptide, bought: GenScript
B4: Hsp72 tracer FITC-Ahx-GSGPTIEEVD (peptide)
peptide: GSGPTIEEVD-OH
modifications: not fully specified (N-terminus); printed as FITC-Ahx-GSGPTIEEVD; also: methods name the dye 5-FAM, not FITC
notes: last 10 residues of Hsp72/HSPA1A; also called fluorescent Hsp72 tracer; Hsp72 probe; source: synthetic peptide, bought: GenScript
B5: Hsp72 T636E tracer FITC-Ahx-GSGPEIEEVD (peptide)
peptide: GSGPEIEEVD-OH
modifications: not fully specified (N-terminus); printed as FITC-Ahx-GSGPEIEEVD; also: methods name the dye 5-FAM, not FITC
notes: also called phosphomimetic T636E Hsp72 fluorescent tracer; source: synthetic peptide, bought: GenScript
B6: Hsp72 C-terminal peptide truncated of P10 and P9 (8-mer) (peptide, UniProt P0DMV8 634-641, looked up)
peptide: Ac-GPTIEEVD-OH
notes: source: synthetic peptide, bought: GenScript
B7: C terminus of Hsc70 interacting protein (CHIP) (enzyme, human, UniProt Q9UNE7 1-303, looked up)
chain: MKGKEEKEGGARLGAGGGSPEKSPSAQELKEQGNRLFVGRKYPEAAACYGRAITRNPLVAVYYTNRALCYLKMQQHEQALADCRRALELDGQSVKAHFFLGQCQLEMESYDEAIANLQRAYSLAKEQRLNFGDDIPSALRIAKKKRWNSIEERRIHQESELHSYLSRLIAAERERELEECQRNHEGDEDDSHVRAQQACIEAKHDKYMADMDELFSQVDEKRKKRDIPDYLCGKISFELMREPCITPSGITYDRKDIEEHLQRVGHFDPVTRSPLTQEQLIPNLAMKEVIDAFISENGWVEDY
notes: recombinant human CHIP, E3 ubiquitin ligase with a TPR domain; source: E. coli BL21(DE3), purified (Ni-NTA, TEV cleavage, SEC); not shown: His6, N-terminal, cleaved
B8: Hsp72 C-terminal peptide truncated of P10 (9-mer) (peptide, UniProt P0DMV8 633-641, looked up)
peptide: Ac-SGPTIEEVD-OH
notes: as for B6

What all share (conditions): both partners purified
Assay [1] concerns the target B7. Kind of assay: fluorescence polarisation; competition; 100 μM unlabeled peptide, 1.58 μM CHIP, 20 nM Hsp72 tracer; 50 mM Hepes pH 7.4, 50 mM KCl, 0.01% Triton X-100; 30 min at room temperature. In general terms: In fluorescence polarisation assays a small probe gives low polarisation when free and higher when bound to something large.
Assay [2] concerns the target T1, DnaJB4 (human, UniProt Q9UDY4 1-337).
T1 construct: DnaJB4, human, recombinant full length class B J-domain protein; the oligomeric state of DnaJB4 is not measured here; also called WT DnaJB4; class B JDP; source: E. coli BL21 (DE3) Rosetta, purified (Ni-NTA, TEV cleavage, SEC on Superdex 200); not shown: His6, N-terminal, cleaved
Kind of assay: fluorescence polarisation; competition; 100 μM unlabeled peptide, 5 μM DnaJB4, 20 nM Hsp72 tracer in JDP binding buffer; 30 min at room temperature; tracer displacement relative to DMSO control.

Assay [3] addresses T1, DnaJB4. Kind of assay: fluorescence polarisation; saturation binding; 20 nM fluorescent Hsp72 tracer, J-domain protein titrated in 2x dilutions (110-0.013 μM told for DnaJB4); 50 mM Tris, 15 mM NaCl, 1 mM DTT, 0.01% Triton X-100, pH 8.0; 30 min at room temperature.
The target of assay [4] is B5. Kind of assay: fluorescence polarisation; saturation binding; 20 nM fluorescent Hsp72 tracer, CHIP titrated in 2x dilutions (110-0.013 μM); 25 mM Hepes, 50 mM KCl, 0.01% Triton X-100, pH 7.4; 30 min at room temperature.

Several values for one entry are separate records, joined by “and”; a condition that tells them apart may be missing. Identical values can stand only once. No end group written: not given here.

T1 sequence (Q9UDY4 whole entry): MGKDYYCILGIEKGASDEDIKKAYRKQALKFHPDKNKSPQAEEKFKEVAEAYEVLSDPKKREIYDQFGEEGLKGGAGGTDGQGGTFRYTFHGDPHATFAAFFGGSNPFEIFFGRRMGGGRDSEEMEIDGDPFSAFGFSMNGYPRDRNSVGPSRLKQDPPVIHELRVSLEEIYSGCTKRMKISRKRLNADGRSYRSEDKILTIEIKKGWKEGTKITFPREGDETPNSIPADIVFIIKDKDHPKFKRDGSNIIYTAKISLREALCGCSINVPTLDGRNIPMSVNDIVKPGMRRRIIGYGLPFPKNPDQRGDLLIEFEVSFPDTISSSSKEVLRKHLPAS

As to B1, in assay [1], the binding result is recorded as “binds”.

On to B2, for which the binding result with DnaJB4 [2] was “binds”.

With B3, the binding result in the assay with DnaJB4 [2] is “binds”.

Usually Kd stands for the free concentration of one partner at which half of the binding sites on the other are occupied at equilibrium, for simple one-to-one binding. A high value points to lower affinity. B4: in the assay with DnaJB4 [3], the dissociation constant Kd was 1840 nM and 1650 nM. Also, in assay [1], the binding result is “binds”.

As for B5, in the assay with DnaJB4 [3], the binding result is “binds”.

As for B6, the binding result with DnaJB4 [2] is reported as “binds”.

Consider B7, for which the “fold weakening of the affinity against the WT tracer” value in assay [4] amounted to 5 fold.

Consider B8, for which, in the assay with DnaJB4 [2], the binding result is reported as “binds”.
